Assay results: PMC4595200, “In vitro analyses of mitochondrial ATP/phosphate carriers from Arabidopsis thaliana revealed unexpected Ca^2+-effects” (BMC Plant Biology, 2015)

Legend:
purified protein [1] = substrate: Nc1ncnc2c1ncn2[C@@H]1O[C@H](COP(=O)(O)OP(=O)(O)OP(=O)(O)O)[C@@H](O)[C@H]1O; assay: purified protein; details: ATP import / Pi export (Pi-loaded, 5 mM), no added Ca2+ or Mg2+ (traces ~9 μM each), pH 7.5, 30 °C, 2.5 min, labelled compound, apparent
purified protein [2] = substrate: Nc1ncnc2c1ncn2[C@@H]1O[C@H](COP(=O)(O)OP(=O)(O)O)[C@@H](O)[C@H]1O; assay: purified protein; details: ADP import / ATP export (ATP-loaded, 5 mM), no added Ca2+ or Mg2+, pH 7.5, 30 °C, 2.5 min, labelled compound, apparent
[3] = substrate: Nc1ncnc2c1ncn2[C@@H]1O[C@H](COP(=O)(O)OP(=O)(O)OP(=O)(O)O)[C@@H](O)[C@H]1O; assay: radiolabelled uptake into proteoliposomes; assay type: biochemical, Arabidopsis thaliana; details: ATP import / Pi export (Pi-loaded, 5 mM), no added Ca2+ or Mg2+ (traces ~9 μM each), pH 7.5, 30 °C, 2.5 min, labelled compound, apparent
[4] = substrate: Nc1ncnc2c1ncn2[C@@H]1O[C@H](COP(=O)(O)OP(=O)(O)O)[C@@H](O)[C@H]1O; assay: radiolabelled uptake into proteoliposomes; assay type: biochemical, Arabidopsis thaliana; details: ADP import / ATP export (ATP-loaded, 5 mM), no added Ca2+ or Mg2+, pH 7.5, 30 °C, 2.5 min, labelled compound, apparent

Protein | Km (purified protein [1]) | Vmax (purified protein [1]) | Km (purified protein [2]) | Vmax (purified protein [2]) | Km [3] | Vmax [3] | Km [4] | Vmax [4]
AtAPC1 (Arabidopsis thaliana) (protein) MEAEKSKQNPGKKPVEATMEHVLVALRETKEKREIRIQKLFEFFDNSKLGFLDDTQIEKGLSSLSIPPKYRYASDFLKVCDSNRDGRVDYQEFRRYMDAKELELYKIFQAIDIEHNGDICPAELWEALDKAGIKIKDEELASFMEHVDKDNNGIITFEEWRDFLLLNPHEATIENIYHHWERVCLIDIGEQAVIPDGISAHAQRSKLLLAGGIAGAVSRTATAPLDRLKVALQVQRTNLGVVPTIKKIWREDKLLGFFRGNGLNVAKVAPESAIKFAAYEMLKPIIGGADGDIGTSGRLLAGGLAGAVAQTAIYPMDLVKTRLQTFVSEVGTPKLWKLTKDIWIQEGPRAFYRGLCPSLIGIIPYAGIDLAAYETLKDLSRAHFLHDTAEPGPLIQLGCGMTSGALGASCVYPLQVIRTRMQADSSKTSMGQEFLKTLRGEGLKGFYRGIFPNFFKVIPSASISYLVYEAMKKNLALD | 68 (6) μM | 201(±14) nmol mg protein^-1 h^-1 | 180 (±15) μM | 2078 (±315) nmol mg protein^-1 h^-1 |  |  |  | 
AtAPC2 (Arabidopsis thaliana) (protein) MEATKSSKQNCCNPVKKPGPVSIDHVLLALRETREERDLRIRSLFSFFDSENVGYLDCAQIEKGLCALQIPSGYKYAKELFRVCDANRDGRVDYHEFRRYMDDKELELYRIFQAIDVEHNGCISPEGLWDSLVKAGIEIKDEELARFVEHVDKDNDGIIMFEEWRDFLLLYPHEATIENIYHHWERVCLVDIGEQAVIPEGISKHIKRSNYFIAGGIAGAASRTATAPLDRLKVLLQIQKTDARIREAIKLIWKQGGVRGFFRGNGLNIVKVAPESAIKFYAYELFKNAIGENMGEDKADIGTTVRLFAGGMAGAVAQASIYPLDLVKTRLQTYTSQAGVAVPRLGTLTKDILVHEGPRAFYKGLFPSLLGIIPYAGIDLAAYETLKDLSRTYILQDAEPGPLVQLGCGTISGALGATCVYPLQVVRTRMQAERARTSMSGVFRRTISEEGYRALYKGLLPNLLKVVPAASITYMVYEAMKKSLELD |  |  |  |  | 95 (±12) μM | 212 (±24) nmol mg protein^-1 h^-1 | 374 (±40) μM | 778 (±82) nmol mg protein^-1 h^-1
AtAPC3 (Arabidopsis thaliana) (protein) MESSKPKNRNPMKKPVSITMEHVLLALRETMDEREIRIRSLFDFFDNSNLGFLDYAQIEKGLASLQIPPEYKYARDLFRVCDANRDGRVDYQEFRRYIDAKELELYRIFQAIDVEHNGCILPEELWEALVKAGIEIDDEELARFVEHVDKDNNGTITFEEWRDFLLLYPHEATLENIYHHWERVCLIDIGEQAVIPDGISKHVKRSRLLLAGGLAGAVSRTATAPLDRLKVVLQVQRAHAGVLPTIKKIWREDKLMGFFRGNGLNVMKVAPESAIKFCAYEMLKPMIGGEDGDIGTSGRLMAGGMAGALAQTAIYPMDLVKTRLQTCVSEGGKAPKLWKLTKDIWVREGPRAFYKGLFPSLLGIVPYAGIDLAAYETLKDLSRTYILQDTEPGPLIQLSCGMTSGALGASCVYPLQVVRTRMQADSSKTTMKQEFMNTMKGEGLRGFYRGLLPNLLKVVPAASITYIVYEAMKKNMALD |  |  |  |  | 113 (±17) μM | 282 (±20) nmol mg protein^-1 h^-1 | 72 (±5) μM | 770 (±90) nmol mg protein^-1 h^-1
